Source: patent publication US20240401082A1 (Sanofi, published 2024)

T1: human complement C1s enzyme (activated C1s) (human, UniProt P09871 16-437; P09871 438-688)
T1 sequence 1: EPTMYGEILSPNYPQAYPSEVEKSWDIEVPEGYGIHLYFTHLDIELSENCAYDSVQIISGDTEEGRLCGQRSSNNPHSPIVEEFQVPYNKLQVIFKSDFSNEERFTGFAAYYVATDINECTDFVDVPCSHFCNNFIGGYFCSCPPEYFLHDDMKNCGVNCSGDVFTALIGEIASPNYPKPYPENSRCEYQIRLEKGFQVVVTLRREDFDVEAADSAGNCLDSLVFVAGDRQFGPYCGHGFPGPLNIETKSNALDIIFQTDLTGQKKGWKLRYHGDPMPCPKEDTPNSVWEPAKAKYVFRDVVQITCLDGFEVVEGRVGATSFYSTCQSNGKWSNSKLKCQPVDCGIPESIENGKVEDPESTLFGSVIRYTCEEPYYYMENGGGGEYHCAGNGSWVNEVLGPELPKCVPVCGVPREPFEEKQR
T1 sequence 2: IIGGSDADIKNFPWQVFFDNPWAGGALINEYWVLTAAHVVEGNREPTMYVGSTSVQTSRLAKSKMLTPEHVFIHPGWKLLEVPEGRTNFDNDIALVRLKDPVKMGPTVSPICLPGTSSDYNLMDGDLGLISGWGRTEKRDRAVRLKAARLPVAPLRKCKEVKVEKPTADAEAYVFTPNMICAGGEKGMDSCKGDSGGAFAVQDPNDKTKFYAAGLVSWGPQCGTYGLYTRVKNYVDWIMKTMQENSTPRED


Assays:
[1] = target: T1, human complement C1s enzyme (activated …); test: cell-based or functional assay
[2] = target: T2, human complement factor Bb (human, UniProt P00751 260-764); test: cell-based or functional assay
[3] = target: T1, human complement C1s enzyme (activated …); test: BLI (Octet), biotinylated target on streptavidin sensor
Excerpt: (§1) Bio-layer interferometry (BLI) was used to assess the recombinant proteins' target engagement to and binding affinity for complement C1s enzyme (active C1s or “C1s” herein) and factor Bb (Bb) (Complement Technology, Tyler, TX, USA). C1s and Bb were biotinylated with EZ-Link™ Sulfo-NHS-LC-LC-Biotin (Thermo Fisher, Waltham, MA, USA) according to manufacturer instructions. Biotinylated C1s or Bb was loaded on Octet® Streptavidin (SA) Biosensors (Sartorius, Göttingen, Germany), followed by a concentration range of purified proteins. To assess dual target engagement, biotinylated active C1s or Bb was loaded onto sensors, followed by purified proteins (“first association phase”), followed by the non-captured complement target (Bb or active C1s, non-biotinylated; “second association phase”). The assays were performed at 30° C. using PBS with 0.1% Tween 20 as a diluent (FIG. 3).

[4] = target: T2, human complement factor Bb; test: as above
Excerpt: as §1

[5] = target: T1, human complement C1s enzyme (activated …); test: BLI dual target engagement: one target captured, then protein, then the other target
Excerpt: as §1

[6] = target: T2, human complement factor Bb; test: as above
Excerpt: as §1

T2 sequence (P00751 260-764): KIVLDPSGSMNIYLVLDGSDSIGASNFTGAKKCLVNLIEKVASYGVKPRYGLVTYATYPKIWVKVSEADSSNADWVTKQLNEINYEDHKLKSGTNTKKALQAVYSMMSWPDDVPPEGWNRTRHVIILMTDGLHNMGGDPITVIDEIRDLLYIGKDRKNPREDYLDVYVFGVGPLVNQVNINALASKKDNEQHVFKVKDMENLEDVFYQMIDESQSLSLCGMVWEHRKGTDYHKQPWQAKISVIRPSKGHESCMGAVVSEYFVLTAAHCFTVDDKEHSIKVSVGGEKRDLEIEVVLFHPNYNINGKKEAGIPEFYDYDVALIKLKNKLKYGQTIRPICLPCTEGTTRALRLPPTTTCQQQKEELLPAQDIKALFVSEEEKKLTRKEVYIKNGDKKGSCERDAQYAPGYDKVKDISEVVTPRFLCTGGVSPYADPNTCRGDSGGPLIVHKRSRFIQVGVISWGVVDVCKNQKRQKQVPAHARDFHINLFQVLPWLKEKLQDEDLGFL

Binder | IC50 CP (Wieslab) [1] | IC50 AP (Wieslab) [2] | Kd [3] | koff [3] | kon [3] | Kd [4] | koff [4] | kon [4] | IC50 AP (Wieslab); curve not saturated, estimated [2] | binding result [5] | binding result [6]
construct #7: αC1s scFab-(G4S)3-αBb scFab (bispecific antibody, Signal peptide marked by boldface only) DIVLTQSPDSLAVSLGERATISCKASQSVDYDGDSYMNWYQQKPGQPPKILIYDASNLESGIPARFSGSGSGTDFTLTISSLEPEDFAIYYCQQSNEDPWTFGGGTKVEIKRTVAAPSVFIFPPSDEQLKSGTASVVCLLNNFYPREAKVQWKVDNALQSGNSQESVTEQDSKDSTYSLSSTLTLSKADYEKHKVYACEVTHQGLSSPVTKSFNRGECGGGGSGGGGSGGGGSGGGGSGGGGSGGGGSGGGGSQVQLVQSGAEVKKPGASVKLSCTASGFNIKDDYIHWVKQAPGQGLEWIGRIDPADGHTKYAPKFQVKVTITADTSTSTAYLELSSLRSEDTAVYYCARYGYGREVFDYWGQGTTVTVSSASTKGPSVFPLAPCSRSTSESTAALGCLVKDYFPEPVTVSWNSGALTSGVHTFPAVLQSSGLYSLSSVVTVPSSSLGTKTYTCNVDHKPSNTKVDKRVGGGGSGGGGSGGGGSDIQMTQSPSTLSASVGDRVTITCKASQDVGTAVAWYQQKPGKAPKLLIYWASTRHTGVPDRFSGSGSGTDFTLTISSLQAEDFAVYFCHQHSSNPLTFGQGTKLEIKRTVAAPSVFIFPPSDEQLKSGTASVVCLLNNFYPREAKVQWKVDNALQSGNSQESVTEQDSKDSTYSLSSTLTLSKADYEKHKVYACEVTHQGLSSPVTKSFNRGECGGGGSGGGGSGGGGSGGGGSGGGGSGGGGSGGGGSEVQLVESGGGLVKPGGSLRLSCAASGFTFSNYAMSWVRQAPGKRLEWVATISNRGSYTYYPDSVKGRFTISRDNAKNSLYLQMNSLRAEDTALYYCARERPMDYWGQGTLVTVSSASTKGPSVFPLAPCSRSTSESTAALGCLVKDYFPEPVTVSWNSGALTSGVHTFPAVLQSSGLYSLSSVVTVPSSSLGTKTYTCNVDHKPSNTKVDKRV | 45.9 nM | 570 nM | 1.8 nM | 0.00047 s⁻¹ | 260000 M⁻¹ s⁻¹ | 9.3 nM | 0.00054 s⁻¹ | 60000 M⁻¹ s⁻¹ | – | – | –
construct #17: αC1s F2A Fab-(G4S)3-αBb scFab (bispecific antibody) light: DIVLTQSPDSLAVSLGERATISCKASQSVDYDGDSYMNWYQQKPGQPPKILIYDASNLESGIPARFSGSGSGTDFTLTISSLEPEDFAIYYCQQSNEDPWTFGGGTKVEIKRTVAAPSVFIFPPSDEQLKSGTASVVCLLNNFYPREAKVQWKVDNALQSGNSQESVTEQDSKDSTYSLSSTLTLSKADYEKHKVYACEVTHQGLSSPVTKSFNRGEC QVQLVQSGAEVKKPGASVKLSCTASGFNIKDDYIHWVKQAPGQGLEWIGRIDPADGHTKYAPKFQVKVTITADTSTSTAYLELSSLRSEDTAVYYCARYGYGREVFDYWGQGTTVTVSSASTKGPSVFPLAPCSRSTSESTAALGCLVKDYFPEPVTVSWNSGALTSGVHTFPAVLQSSGLYSLSSVVTVPSSSLGTKTYTCNVDHKPSNTKVDKRVGGGGSGGGGSGGGGSDIQMTQSPSTLSASVGDRVTITCKASQDVGTAVAWYQQKPGKAPKLLIYWASTRHTGVPDRFSGSGSGTDFTLTISSLQAEDFAVYFCHQHSSNPLTFGQGTKLEIKRTVAAPSVFIFPPSDEQLKSGTASVVCLLNNFYPREAKVQWKVDNALQSGNSQESVTEQDSKDSTYSLSSTLTLSKADYEKHKVYACEVTHQGLSSPVTKSFNRGECGGGGSGGGGSGGGGSGGGGSGGGGSGGGGSGGGGSEVQLVESGGGLVKPGGSLRLSCAASGFTFSNYAMSWVRQAPGKRLEWVATISNRGSYTYYPDSVKGRFTISRDNAKNSLYLQMNSLRAEDTALYYCARERPMDYWGQGTLVTVSSASTKGPSVFPLAPCSRSTSESTAALGCLVKDYFPEPVTVSWNSGALTSGVHTFPAVLQSSGLYSLSSVVTVPSSSLGTKTYTCNVDHKPSNTKVDKRV | – | – | – | – | – | – | – | – | – | binds | binds
construct #15: αC1s scFab-(G4S)3-αBb scFv (bispecific antibody, Residues 1-20 were left out as the signal peptide, which is marked by boldface only) DIVLTQSPDSLAVSLGERATISCKASQSVDYDGDSYMNWYQQKPGQPPKILIYDASNLESGIPARFSGSGSGTDFTLTISSLEPEDFAIYYCQQSNEDPWTFGGGTKVEIKRTVAAPSVFIFPPSDEQLKSGTASVVCLLNNFYPREAKVQWKVDNALQSGNSQESVTEQDSKDSTYSLSSTLTLSKADYEKHKVYACEVTHQGLSSPVTKSFNRGECGGGGSGGGGSGGGGSGGGGSGGGGSGGGGSGGGGSQVQLVQSGAEVKKPGASVKLSCTASGFNIKDDYIHWVKQAPGQGLEWIGRIDPADGHTKYAPKFQVKVTITADTSTSTAYLELSSLRSEDTAVYYCARYGYGREVFDYWGQGTTVTVSSASTKGPSVFPLAPCSRSTSESTAALGCLVKDYFPEPVTVSWNSGALTSGVHTFPAVLQSSGLYSLSSVVTVPSSSLGTKTYTCNVDHKPSNTKVDKRVGGGGSGGGGSGGGGSEVQLVESGGGLVKPGGSLRLSCAASGFTFSNYAMSWVRQAPGKRLEWVATISNRGSYTYYPDSVKGRFTISRDNAKNSLYLQMNSLRAEDTALYYCARERPMDYWGQGTLVTVSSGGGGSGGGGSGGGGSDIQMTQSPSTLSASVGDRVTITCKASQDVGTAVAWYQQKPGKAPKLLIYWASTRHTGVPDRFSGSGSGTDFTLTISSLQAEDFAVYFCHQHSSNPLTFGQGTKLEIK | 34.7 nM | 405 nM | 1.6 nM | 0.00057 s⁻¹ | 370000 M⁻¹ s⁻¹ | 3.9 nM | 0.00045 s⁻¹ | 120000 M⁻¹ s⁻¹ | – | – | –

The remaining binders from weak to strong by Kd [3], led by results:

IC50 CP (Wieslab) [1] | IC50 AP (Wieslab) [2] | Kd [3] | koff [3] | kon [3] | Kd [4] | koff [4] | kon [4] | IC50 AP (Wieslab); curve not saturated, estimated [2] | binding result [5] | binding result [6] | Binder
49.7 nM | – | 2.7 nM | 0.00058 s⁻¹ | 210000 M⁻¹ s⁻¹ | 8.8 nM | 0.00051 s⁻¹ | 60000 M⁻¹ s⁻¹ | ~1000 nM | – | – | construct #11: αC1s scFab-(G4S)3-αBb scFab-CM (bispecific antibody, Residues 1-20 were left out as the signal peptide, which is marked by boldface only) DIVLTQSPDSLAVSLGERATISCKASQSVDYDGDSYMNWYQEKPGQPPKILIYDASNLESGIPARFSGSGSGTDFTLTISSLEPEDFAIYYCQQSNEDPWTFGGGTKVEIKRTVAAPSVFIFPPSDEQLKSGTASVVCLLNNFYPREAKVQWKVDNALQSGNSQESVTEQDSKDSTYSLSSTLTLSKADYEKHKVYACEVTHQGLSSPVTKSFNRGECGGGGSGGGGSGGGGSGGGGSGGGGSGGGGSGGGGSQVQLVQSGAEVKKPGASVKLSCTASGFNIKDDYIHWVKKAPGQGLEWIGRIDPADGHTKYAPKFQVKVTITADTSTSTAYLELSSLRSEDTAVYYCARYGYGREVFDYWGQGTTVTVSSASTKGPSVFPLAPCSRSTSESTAALGCLVKDYFPEPVTVSWNSGALTSGVHTFPAVLQSSGLYSLSSVVTVPSSSLGTKTYTCNVDHKPSNTKVDKRVGGGGSGGGGSGGGGSDIQMTQSPSTLSASVGDRVTITCKASQDVGTAVAWYQKKPGKAPKLLIYWASTRHTGVPDRFSGSGSGTDFTLTISSLQAEDFAVYFCHQHSSNPLTFGQGTKLEIKRTVAAPAVFIFPPSDEQLKSGTASVVCLLKNFYPREAKVQWKVDNALQSGNSQESVTEQDSKDSTYSLSSTLTLSKADYEKHKVYACEVTHQGLSSPVTKSFNRGECGGGGSGGGGSGGGGSGGGGSGGGGSGGGGSGGGGSEVQLVESGGGLVKPGGSLRLSCAASGFTFSNYAMSWVREAPGKRLEWVATISNRGSYTYYPDSVKGRFTISRDNAKNSLYLQMNSLRAEDTALYYCARERPMDYWGQGTLVTVSSASTKGPSVFPLAPCSRSTSESTAALGCLVKDYFPEPVTVSWNSGALTSGVHTFPAVLQSSGLYSLSSVVEVPSSSLGTKTYTCNVDHKPSNTKVDKRV
35.4 nM | 586 nM | 1.4 nM | 0.00051 s⁻¹ | 360000 M⁻¹ s⁻¹ | 2.5 nM | 0.00023 s⁻¹ | 90000 M⁻¹ s⁻¹ | – | – | – | construct #16: αC1s scFab-(G4S)3-αBb scFv-CM (bispecific antibody, Residues 1-20 were left out as the signal peptide, which is marked by boldface only) DIVLTQSPDSLAVSLGERATISCKASQSVDYDGDSYMNWYQEKPGQPPKILIYDASNLESGIPARFSGSGSGTDFTLTISSLEPEDFAIYYCQQSNEDPWTFGGGTKVEIKRTVAAPSVFIFPPSDEQLKSGTASVVCLLNNFYPREAKVQWKVDNALQSGNSQESVTEQDSKDSTYSLSSTLTLSKADYEKHKVYACEVTHQGLSSPVTKSFNRGECGGGGSGGGGSGGGGSGGGGSGGGGSGGGGSGGGGSQVQLVQSGAEVKKPGASVKLSCTASGFNIKDDYIHWVKKAPGQGLEWIGRIDPADGHTKYAPKFQVKVTITADTSTSTAYLELSSLRSEDTAVYYCARYGYGREVFDYWGQGTTVTVSSASTKGPSVFPLAPCSRSTSESTAALGCLVKDYFPEPVTVSWNSGALTSGVHTFPAVLQSSGLYSLSSVVTVPSSSLGTKTYTCNVDHKPSNTKVDKRVGGGGSGGGGSGGGGSEVQLVESGGGLVKPGGSLRLSCAASGFTFSNYAMSWVREAPGKRLEWVATISNRGSYTYYPDSVKGRFTISRDNAKNSLYLQMNSLRAEDTALYYCARERPMDYWGQGTLVTVSSGGGGSGGGGSGGGGSDIQMTQSPSTLSASVGDRVTITCKASQDVGTAVAWYQKKPGKAPKLLIYWASTRHTGVPDRFSGSGSGTDFTLTISSLQAEDFAVYFCHQHSSNPLTFGQGTKLEIK
